The text below walks through data of patent US20190338002A1 (Pieris, published 2019).

The target of assay [1] is T1, human alpha CGRP (SEQ ID NO: 80) (human, not fully specified).
T1 construct: also called human αCGRP; hαCGRP
T1 peptide: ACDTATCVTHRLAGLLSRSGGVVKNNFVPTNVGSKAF
As to the kind of experiment: SPR as in Example 5. On the procedure:
(§1) The Biotin CAPture Kit (GE Healthcare) was used to immobilize biotinylated lipocalin muteins to a chip surface. Muteins were biotinylated using standard NHS chemistry. Undiluted Biotin CAPture Reagent (streptavidin conjugated with ss-DNA oligo) was captured on a Sensor Chip CAP with the pre-immobilized complementary ss-DNA oligo. Thereafter, biotinylated muteins at 1 μg/mL were applied for 300 s at a flow rate of 5 μL/min.
(§2) CGRP species were applied in three concentrations of 30 nM, 3 nM and 0.3 nM at a flow rate of 30 μL/min or in a single concentration of 25 nM per cycle as shown in FIG. 2. The dilutions were injected with association times of 180 s and dissociation times of 5400 sec to obtain ka and kd information. Regeneration of the chip surface was achieved by injecting 6 M Guanidinium-HCl+0.25 M NaOH (120 s) with a flow rate of 10 μL/min. Injection of regeneration solutions was followed by an extra wash step with HBS-EP+(1×; BR-1006-69; GE Healthcare) running buffer and a stabilization period of 120 s.

Assay [2] deals with T2, human beta CGRP (SEQ ID NO: 81) (human, not fully specified).
T2 construct: also called human βCGRP; hβCGRP
T2 peptide: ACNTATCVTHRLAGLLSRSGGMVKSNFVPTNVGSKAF
Put plainly: SPR as in Example 5. On the procedure: as §1, §2

The target in assay [3] is T1, human alpha CGRP (SEQ ID NO: 80). Put plainly: cell-based or functional assay.
Assay [4] concerns the target T2, human beta CGRP (SEQ ID NO: 81). Put plainly: cell-based or functional assay.

B1: cysteine-free lipocalin mutein SEQ ID NO: 31 (designed binder)
chain: QDSTSDLIPAPPLSKVPLQQNFQDNQFQGKWYVVGWAGNTLLREDKDPIKMQAMIYELKEDKSYNVTWVYFADKKRNYHIETFVPGSQPGEFTLGTIKSYPGETPILVRVVSTNYNQHAMVFFKGVNQNREIFEIVLYGRTKELTNELKENFIRFSKSLGLPENHIVFPVPIDQFIDGSAWSHPQFEK
notes: biotinylated by NHS chemistry for capture in SPR
In the case of B1, the figures for the dissociation constant (Kd) in assay [1] and in assay [2] were 33 pM and 43 pM, respectively. The “cAMP assay IC50, SK-N-MC cells” value was 190 pM in assay [3] and 1640 pM in assay [4].

B2: cysteine-free lipocalin mutein SEQ ID NO: 40 (designed binder)
chain: QDSTSDLIPAPPLSKVPLQQNFQDNQFQGKWYVVGWAGNTLLREDKDPIKMQAMIYELKEDKSYNVTWVYFADKKFNYHIETFVPGSQPGEFTLGTIKSYPGETPILVRVVSTNYNQHAMVFFKGVNQNREIFEIVLYGRTKELTNELKENFIRFSKSLGLPENHIVFPVPIDQDIDGSAWSHPQFEK
notes: as for B1
For B2, the Kd (commonly the concentration at which binding is half-saturated) amounted to 70 pM in assay [1] and 23 pM in assay [2]. Moreover, the entries for the “cAMP assay IC50, SK-N-MC cells” value in assay [3] and in assay [4] were 180 pM and 420 pM, respectively.

B3: cysteine-free lipocalin mutein SEQ ID NO: 34 (designed binder)
chain: QDSTSDLIPAPPLSKVPLQQNFQDNQFQGKWYVVGWAGNTLLREDKDPIKMQAMIYELKEDKSYNVTWVYFADKKINYHIETFVPGSQPGEFTLGTIKSYPGETPILVRVVSTNYNQHAMVFFKGVNQNREIFEIVLYGRTKELTNELKENFIRFSKSLGLPENHIVFPVPIDQEIDGSAWSHPQFEK
notes: as for B1
As to B3, the values for the Kd in assay [1] and in assay [2] were 41 pM and 25 pM, respectively. For the same molecule, the “cAMP assay IC50, SK-N-MC cells” value in assay [3] came out at 120 pM; in assay [4], 290 pM.

B4: cysteine-free lipocalin mutein SEQ ID NO: 38 (designed binder)
chain: QDSTSDLIPAPPLSKVPLQQNFQDNQFQGKWYVVGWAGNTLLREDKDPIKMQAMIYELKEDKSYNVTWVYFADKKRNYHIETFVPGSQPGEFTLGTIKSYPGETPILVRVVSTNYNQHAMVFFKGVNQNREIFEIVLYGRTKELTNELKENFIRFSKSLGLPENHIVFPVPIDQVIDGSAWSHPQFEK
notes: as for B1
Consider B4, for which the Kd was determined as 59 pM in assay [1] and 26 pM in assay [2]. The “cAMP assay IC50, SK-N-MC cells” value in assay [3] stood at 210 pM; in assay [4] it was 3160 pM.

B5: cysteine-free lipocalin mutein SEQ ID NO: 39 (designed binder)
chain: QDSTSDLIPAPPLSKVPLQQNFQDNQFQGKWYVVGWAGNTLLREDKDPIKMQAMIYELKEDKSYNVTWVYFADKKKNYHIETFVPGSQPGEFTLGTIKSYPGETPILVRVVSTNYNQHAMVFFKGVNQNREIFEIVLYGRTKELTNELKENFIRFSKSLGLPENHIVFPVPIDQDIDGSAWSHPQFEK
notes: as for B1
In the case of B5, the Kd amounted to 62 pM in assay [1] and 34 pM in assay [2]. Moreover, the entries for the “cAMP assay IC50, SK-N-MC cells” value in assay [3] and in assay [4] were 210 pM and 1030 pM, respectively.

B6: cysteine-free lipocalin mutein SEQ ID NO: 35 (designed binder)
chain: QDSTSDLIPAPPLSKVPLQQNFQDNQFQGKWYVVGWAGNTLLREDKDPIKMQAMIYELKEDKSYNVTWVYFADKKVNYHIETFVPGSQPGEFTLGTIKSYPGETPILVRVVSTNYNQHAMVFFKGVNQNREIFEIVLYGRTKELTNELKENFIRFSKSLGLPENHIVFPVPIDQYIDGSAWSHPQFEK
notes: as for B1
On to B6, for which the Kd is 45 pM in assay [1] and 17 pM in assay [2]. The “cAMP assay IC50, SK-N-MC cells” value was 150 pM in assay [3] and 270 pM in assay [4].

B7: cysteine-free lipocalin mutein SEQ ID NO: 36 (designed binder)
chain: QDSTSDLIPAPPLSKVPLQQNFQDNQFQGKWYVVGWAGNTLLREDKDPIKMQAMIYELKEDKSYNVTWVYFADKKRNYHIETFVPGSQPGEFTLGTIKSYPGETPILVRVVSTNYNQHAMVFFKGVNQNREIFEIVLYGRTKELTNELKENFIRFSKSLGLPENHIVFPVPIDQWIDGSAWSHPQFEK
notes: as for B1
As for B7, the Kd in assay [1] is 46 pM; in assay [2] it was 22 pM. Also, the “cAMP assay IC50, SK-N-MC cells” value is 250 pM in assay [3] and 810 pM in assay [4].

B8: cysteine-free lipocalin mutein SEQ ID NO: 33 (designed binder)
chain: QDSTSDLIPAPPLSKVPLQQNFQDNQFQGKWYVVGWAGNTLLREDKDPIKMQAMIYELKEDKSYNVTWVYFADKKLNYHIETFVPGSQPGEFTLGTIKSYPGETPILVRVVSTNYNQHAMVFFKGVNQNREIFEIVLYGRTKELTNELKENFIRFSKSLGLPENHIVFPVPIDQWIDGSAWSHPQFEK
notes: as for B1
Consider B8, for which the Kd in assay [1] amounted to 34 pM; in assay [2] it was 18 pM. For the same molecule, the results for the “cAMP assay IC50, SK-N-MC cells” value in assay [3] and in assay [4] were 140 pM and 240 pM, respectively.

B9: cysteine-free lipocalin mutein SEQ ID NO: 32 (designed binder)
chain: QDSTSDLIPAPPLSKVPLQQNFQDNQFQGKWYVVGWAGNTLLREDKDPIKMQAMIYELKEDKSYNVTWVYFADKKMNYHIETFVPGSQPGEFTLGTIKSYPGETPILVRVVSTNYNQHAMVFFKGVNQNREIFEIVLYGRTKELTNELKENFIRFSKSLGLPENHIVFPVPIDQYIDGSAWSHPQFEK
notes: as for B1
Consider B9, for which the values for the dissociation constant Kd in assay [1] and in assay [2] were 34 pM and 21 pM, respectively. The “cAMP assay IC50, SK-N-MC cells” value in assay [3] stood at 170 pM; in assay [4], 260 pM.

B10: cysteine-free lipocalin mutein SEQ ID NO: 37 (designed binder)
chain: QDSTSDLIPAPPLSKVPLQQNFQDNQFQGKWYVVGWAGNTLLREDKDPIKMQAMIYELKEDKSYNVTWVYFADKKNNYHIETFVPGSQPGEFTLGTIKSYPGETPILVRVVSTNYNQHAMVFFKGVNQNREIFEIVLYGRTKELTNELKENFIRFSKSLGLPENHIVFPVPIDQLIDGSAWSHPQFEK
notes: as for B1
Turning to B10, the dissociation constant (Kd) was determined as 55 pM in assay [1] and 23 pM in assay [2]. For the same molecule, the “cAMP assay IC50, SK-N-MC cells” value in assay [3] is 160 pM; in assay [4] it was 770 pM.

B11: cysteine-free lipocalin mutein SEQ ID NO: 29 (designed binder)
chain: QDSTSDLIPAPPLSKVPLQQNFQDNQFQGKWYVVGRAGNDVLREDKDPEKMEATIYELKEDKSYNVTDVGFVQKRLMYVTHTFVPGSQPGEFTLGNIESYPGVTSALVRVVSTDYNQHAMVFVKLVKQNRELFEITLYGRTKELTSELKENFIRFSKSLGLPENHIVFPVPIDQIDGSAWSHPQFEK
notes: as for B1
Consider B11, for which the Kd in assay [1] is 65 pM; in assay [2], 50 pM. Besides, the “cAMP assay IC50, SK-N-MC cells” value worked out at 140 pM in assay [3] and 910 pM in assay [4].

B12: cysteine-free lipocalin mutein SEQ ID NO: 30 (designed binder)
chain: QDSTSDLIPAPPLSKVPLQQNFQDNQFQGKWYVVGRAGNDVLREDKDPEKMEATIYELKEDKSYNVTDVGFVQKRYMYVTHTFVPGSQPGEFTLGNIESYPGVTSALVRVVSTDYNQHAMVFVKLVKQNRELFEITLYGRTKELTSELKENFIRFSKSLGLPENHIVFPVPIDQIDGSAWSHPQFEK
notes: as for B1
As for B12, the dissociation constant Kd in assay [1] was found to be 109 pM; in assay [2] it was 75 pM. In addition, the entries for the “cAMP assay IC50, SK-N-MC cells” value in assay [3] and in assay [4] were 220 pM and 1320 pM, respectively.
